Laboratory results published in article PMC5331223, “Differential regulation of the Epr3 receptor coordinates membrane-restricted rhizobial colonization of root nodule primordia”.

Biological target: NIN (520-878) (Lotus japonicus, UniProt Q9S7B1 520-878)
Experiment: EMSA; 25 mM Tris-HCl pH 8.0, 80 mM NaCl, 35 mM KCl, 5 mM MgCl2, 10% glycerol, 1 mM DTT, 0.1% Triton; 25 nM probe, 2 ul protein (ERN1 0.75 mg/ml, NIN 1.0 mg/ml stock); 30 min at 30 C (ERN1) or 37 C (NIN); gel in 0.5x TBE
Conditions: protein: recombinant; tags: His-tag (pET30); label: 6-FAM at 5' of strand 1; blunt

Sequence of NIN (520-878) (Q9S7B1 entry or part of it): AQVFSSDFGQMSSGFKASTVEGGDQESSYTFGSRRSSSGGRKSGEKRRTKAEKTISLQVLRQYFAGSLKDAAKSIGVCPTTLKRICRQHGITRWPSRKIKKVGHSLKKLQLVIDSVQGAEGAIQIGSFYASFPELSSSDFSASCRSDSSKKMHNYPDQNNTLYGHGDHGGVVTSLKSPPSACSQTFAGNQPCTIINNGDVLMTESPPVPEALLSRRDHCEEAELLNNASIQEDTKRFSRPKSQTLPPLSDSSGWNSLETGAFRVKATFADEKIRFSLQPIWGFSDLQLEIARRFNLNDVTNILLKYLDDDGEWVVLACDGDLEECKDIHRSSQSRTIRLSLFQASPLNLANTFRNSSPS

B1: Nin1 probe (Epr3 promoter wt) (dsDNA)
DNA 1: ATACCCTGCCCTTACAGACAAGTATAAGAGGCACAAAA
DNA 2: TTTTGTGCCTCTTATACTTGTCTGTAAGGGCAGGGTAT
binding result: binds
